The term Kd denotes the free concentration of one partner at which half of the binding sites on the other are occupied at equilibrium, for simple one-to-one binding. Usually koff stands for the rate constant with which the complex falls apart. Broadly, the kon is a measure of how fast the partners come together. A word on the EC50 (read off the curve): it is the midpoint of the concentration-response curve.

For assay [1], the target named is T1, recombinant human IL-6 (human, UniProt P05231 30-212). As to the kind of experiment: cell-based or functional assay.
The target in assay [2] is T1, recombinant human IL-6. Kind of assay: SPR (BIAcore 2000, 25 C); cCLB8 captured on anti-human Fc, IL-6 as analyte; 1:1 model. As for the experimental part: (§1) An anti-human Fc (1.8 mg/ml) was diluted to a concentration of 50 μg/ml in NaOAc buffer (10 mM, pH 4.8) and coupled to the carboxymethylated dextran matrix of a CM-5 sensor chip using the manufacturer's amine-coupling chemistry as described in the BIAcore systems manual. Using the surface preparation wizard aiming for 10000 RU, the carboxyl groups on the sensor surfaces were first activated with NHS/EDC followed by the addition of the anti-human Fc. The remaining activated groups were blocked by the injection of 1M ethanolamine. Each of the flow cells was coupled individually. Employing these conditions, the four flow cell surfaces containing 7554-9571 resonance units (RU) of anti-human Fc were prepared. In preliminary experiments, it was determined that three injections (15 ul at 30 μl/min) 100mM H3PO4/0.05% CHAPS would efficiently remove the bound immunoglobulin and preserve the binding capacity of the immobilized anti-human Fc.
(§2) Two experiments were performed on the BIAcore 2000 at 25 °C and a flow rate of 30 μL/min. cCLB8 was dissolved in HBS at 5 ug/ml. […] A designated amount of antibody was flowed over its respective flow cell followed by injections of 30 μl of each IL-6 concentration at 30 μl/min (association phase) and an uninterrupted 800 seconds of buffer flow (dissociation phase). The surface of the chip was regenerated by three sequential injections of 15 μl each with 100 mM H3PO4/0.05% CHAPS. The injections of HBS serve as a reference (blank sensogram) for the subtraction of bulk refractive indices for analysis. Using the 1:1 model in BIAanalysis 3.0, a local fit was done for both dissociation (kd, [s−1] and association (ka, [M-1s−1]) and the dissociation constant (KD, [M]) calculated (kd/ka).
(§3) Analysis was done using BIAevaluation version 3.0. Kinetic constants were derived from sensogram data by fitting the experimental curves to the rate equations derived from models of the interaction mechanism. A global analysis using a 1:1 binding model with local RUmax fit, the ka, kd, KD were determined (Table 1).
A general note: Surface plasmon resonance follows binding to a sensor surface in real time, without labels.

In assay [3] the target is T1, recombinant human IL-6. As to the kind of experiment: SPR (BIAcore 2000, 25 C); cCLB8 captured on anti-human Fc, IL-6 as analyte; 1:1 model; second experiment. As for the experimental part:
as §1, §2, §3

Assay [4] concerns the target T1, recombinant human IL-6. Kind of assay: solid phase EIA, plate coated with recombinant human IL-6 at 1 µg/mL, detection with HRP goat anti-human IgG, OD 490. As for the experimental part:
A solid phase EIA was used to assess binding characteristics of cCLB8 Mab to human IL-6. Briefly, plates were coated with recombinant human IL-6 (RDI) at 1 μg/mL in PBS overnight at 4° C. After washing in 0.15M saline containing 0.02% (v/v) Tween 20, the wells were blocked with 1% (w/v) BSA in PBS, 200 μL/well for 1 hour at RT. Purified antibody was incubated in two-fold serial dilutions from a starting concentration of 5 μg/mL for 1 hour at 37° C. The plate was washed and then probed with 50 μL/well HRP-labeled goat anti-human IgG (Tago) diluted 1:20,000 in 1% BSA-PBS for 1 hour at RT. The plate was again washed and 100 μL/well of the citrate-phosphate substrate solution (0.1 M citric acid and 0.2M sodium phosphate, 0.01% H₂O₂ and 1 mg/mL OPD) was added for 15 minutes at RT. Stop solution (4N sulfuric acid) was then added at 25 μL/well and the absorption at 490 nm quantitated using an automated plate photometer.

B1: chimeric CLB8 anti-human IL-6 monoclonal antibody (antibody, IgG1, V domains shown)
VH: EVQLVESGGKLLKPGGSLKLSCAASGFTFSSFAMSWFRQSPEKRLEWVAEISSGGSYTYYPDTVTGRFTISRDNAKNTLYLEMSSLRSEDTAMYYCARGLWGYYALDYWGQGTSVTVSS
VL: QIVLIQSPAIMSASPGEKVTMTCSASSSVSYMYWYQQKPGSSPRLLIYDTSNLASGVPVRFSGSGSGTSYSLTISRMEAEDAATYYCQQWSGYPYTFGGGTKLEIK
notes: Murine CLB-8 variable regions joined to human constant regions; IgG1 and kappa are named only as preferred; also called anti-IL-6 cCLB-8 antibody; CNTO 328
In the case of B1, in assay [1], the “EC50 of inhibition of IL-6 induced 7TD1 cell proliferation (luminescent ATP assay)” value is 7.2 ng/mL. In assay [2], the Kd turned out to be 0.057 nM, the koff amounted to 6.2e-05 s⁻¹ and the kon was determined as 1.1e+06 M⁻¹ s⁻¹. Also, in assay [3], the Kd is 0.14 nM, the koff turned out to be 5.2e-05 s⁻¹ and the kon stood at 370000 M⁻¹ s⁻¹. The half-maximal effective concentration (EC50 (read off the curve)) in assay [4] is about 4 ng/mL.

These data come from patent publication US20070292420A1 (Janssen / Centocor, published 2007).
